In publication PMC11088704, “Structural basis for the regulation of plant transcription factor WRKY33 by the VQ protein SIB1” (Communications Biology, 2024):

What was measured:
[1] = molecular target: T1, WRKY33 C-terminal DNA-binding domain (WRKY33_C) (Arabidopsis thaliana, UniProt Q8S8P5 331-422); assay: cross-linking; EGS crosslinker, 30-fold molar excess; WRKY33_C and SIB1 each 90 uM; 20 mM HEPES pH 7.0, 50 mM NaCl; room temperature; Tricine-SDS-PAGE; details: both partners purified
T1 construct: it holds I350 and the truncation V352-A422 is derived from it; Zinc-finger domain; 20 uM ZnSO4 in the buffers; Construct limits may be read from PDB 8K31; also called WRKY33 cDBD; WK33; source: E. coli BL21(DE3), purified (Ni-NTA, gel filtration Superdex-75)
T1 sequence (Q8S8P5 331-422): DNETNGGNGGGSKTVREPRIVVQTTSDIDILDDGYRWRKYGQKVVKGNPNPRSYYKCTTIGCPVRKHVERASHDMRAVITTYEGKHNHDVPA

[2] = molecular target: T2, spin-labeled WRKY33_C D357C (Arabidopsis thaliana, UniProt Q8S8P5 331-422, D357C, Cys357 labelled with N-[2-maleimidoethyl]ethylenediamine-N,N,N',N'-tetraacetic acid monoamide, chelating Mn^2+ (paramagnetic) or Ca^2+); assay: NMR titration; 2D 1H-15N HSQC of 15N-labeled SIB1 free and in complex with unlabeled WRKY33_C or its mutants; 30 mM MES pH 6.0, 50 mM NaCl, 20 uM ZnSO4, 25 °C; details: both partners purified
T2 construct: WRKY33, Arabidopsis, C-terminal DBD; also called D357C spin-labeled; Ca^2+-chelated WRKY33_C mutant; source: E. coli, purified as the wild type; labelled, then purified on a cation exchange column
T2 sequence (Q8S8P5 331-422 D357C): as the sequence (Q8S8P5 331-422) above, with D27C counted along it

WRKY33_C D357C mutant = molecular target: T3, WRKY33_C D357C mutant (Arabidopsis thaliana, UniProt Q8S8P5 331-422, D357C); assay: as above; details: both partners purified
T3 construct: WRKY33, Arabidopsis, C-terminal DBD; The mutant without the maleimide-EDTA tag; source: E. coli, expressed and purified similarly to the wild-type protein
T3 sequence (Q8S8P5 331-422 D357C): as the sequence (Q8S8P5 331-422) above, with D27C counted along it

WRKY33_C R366C mutant = molecular target: T4, WRKY33_C R366C mutant (Arabidopsis thaliana, UniProt Q8S8P5 331-422, R366C); assay: as above; details: both partners purified
T4 construct: WRKY33, Arabidopsis, C-terminal DBD; also called R336 (as printed once); source: E. coli, expressed and purified similarly to the wild-type protein
T4 sequence (Q8S8P5 331-422 R366C): as the sequence (Q8S8P5 331-422) above, with R36C counted along it

[3] = molecular target: T5, spin-labeled WRKY33_C R366C (Arabidopsis thaliana, UniProt Q8S8P5 331-422, R366C, Cys366 labelled with N-[2-maleimidoethyl]ethylenediamine-N,N,N',N'-tetraacetic acid monoamide, chelating Mn^2+ (paramagnetic) or Ca^2+); assay: as above; details: both partners purified
T5 construct: WRKY33, Arabidopsis, C-terminal DBD; also called R366C spin-labeled; Ca^2+-chelated WRKY33_C mutant; source: E. coli, purified as the wild type; labelled, then purified on a cation exchange column
T5 sequence (Q8S8P5 331-422 R366C): as the sequence (Q8S8P5 331-422) above, with R36C counted along it

WRKY33_C K376C mutant = molecular target: T6, WRKY33_C K376C mutant (Arabidopsis thaliana, UniProt Q8S8P5 331-422, K376C); assay: as above; details: both partners purified
T6 construct: WRKY33, Arabidopsis, C-terminal DBD; The mutant without the maleimide-EDTA tag; source: E. coli, expressed and purified similarly to the wild-type protein
T6 sequence (Q8S8P5 331-422 K376C): as the sequence (Q8S8P5 331-422) above, with K46C counted along it

[4] = molecular target: T7, spin-labeled WRKY33_C K376C (Arabidopsis thaliana, UniProt Q8S8P5 331-422, K376C, Cys376 labelled with N-[2-maleimidoethyl]ethylenediamine-N,N,N',N'-tetraacetic acid monoamide, chelating Mn^2+ (paramagnetic) or Ca^2+); assay: as above; details: both partners purified
T7 construct: WRKY33, Arabidopsis, C-terminal DBD; also called K376C spin-labeled; Ca^2+-chelated WRKY33_C mutant; source: E. coli, purified as the wild type; labelled, then purified on a cation exchange column
T7 sequence (Q8S8P5 331-422 K376C): as the sequence (Q8S8P5 331-422) above, with K46C counted along it

[5] = molecular target: T1, WRKY33 C-terminal DNA-binding domain …; assay: SEC; Superdex-75; Trx-SIB1 incubated with WRKY33_C before loading; protein standards for calibration; details: both partners purified
WRKY33_C = WRKY33_C (Arabidopsis thaliana, UniProt Q8S8P5 345-422); assay: EMSA; no SIB1; estimated from band intensity (an earlier response in the peer review file prints 150 uM, called sub-micromolar); EMSA: NMR buffer (composition not given in material) with 100 mM NaCl, 1.0 ng dsDNA in 20 ul, room temperature 20 min, SIB1:WRKY33_C 2:1; gel in 0.5x TBE, GelRed stain; details: protein: recombinant; tags: C-terminal 6xHis; blunt
Chain of WRKY33_C (Q8S8P5 345-422): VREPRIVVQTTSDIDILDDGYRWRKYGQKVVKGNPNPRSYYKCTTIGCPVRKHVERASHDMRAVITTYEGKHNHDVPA

WRKY33_C V351A mutant = molecular target: T8, WRKY33_C V351A mutant (Arabidopsis thaliana, UniProt Q8S8P5 331-422, V351A); assay: NMR titration; 2D 1H-15N HSQC of 15N-labeled WRKY33_C (or its mutants), 0.1 mM, with SIB1 or SIB1 peptides added at 2:1 (5:1 also for SIB1^40–60 and SIB1^55–69); 30 mM MES pH 6.0, 50 mM NaCl, 20 uM ZnSO4, 10% D2O, 25 °C; details: both partners purified
T8 construct: WRKY33, Arabidopsis, C-terminal DBD; source: E. coli BL21(DE3), purified (Ni-NTA, gel filtration Superdex-75)
T8 sequence (Q8S8P5 331-422 V351A): as the sequence (Q8S8P5 331-422) above, with V21A counted along it

WRKY33_C I350A mutant = molecular target: T9, WRKY33_C I350A mutant (Arabidopsis thaliana, UniProt Q8S8P5 331-422, I350A); assay: as above; details: both partners purified
T9 construct: WRKY33, Arabidopsis, C-terminal DBD; source: E. coli BL21(DE3), purified (Ni-NTA, gel filtration Superdex-75)
T9 sequence (Q8S8P5 331-422 I350A): as the sequence (Q8S8P5 331-422) above, with I20A counted along it

[6] = molecular target: T10, WRKY33_C-I358D mutant protein (Arabidopsis thaliana, UniProt Q8S8P5 331-422, I358D); assay: as above; details: both partners purified
T10 construct: WRKY33, Arabidopsis, C-terminal DBD; source: E. coli BL21(DE3), purified (Ni-NTA, gel filtration Superdex-75)
T10 sequence (Q8S8P5 331-422 I358D): as the sequence (Q8S8P5 331-422) above, with I28D counted along it

[7] = molecular target: T11, WRKY33_C-I360D mutant protein (Arabidopsis thaliana, UniProt Q8S8P5 331-422, I360D); assay: as above; details: both partners purified
T11 construct: WRKY33, Arabidopsis, C-terminal DBD; source: E. coli BL21(DE3), purified (Ni-NTA, gel filtration Superdex-75)
T11 sequence (Q8S8P5 331-422 I360D): as the sequence (Q8S8P5 331-422) above, with I30D counted along it

B1: SIB1^11-100 (T11-L100 segment of Arabidopsis sigma factor-binding protein SIB1) (domain or fragment, Arabidopsis thaliana, UniProt Q9LDH1 11-100, looked up)
chain: TTSLDKKKPSPVSRKSPKQKKKTTSTNKPIKVRYISNPMRVQTCASKFRELVQELTGQDAVDLQPEPIYSPSSDDHNLSPPAENLAPRVL
notes: SIB1 (VQ23), Arabidopsis, residues T11-L100; the N-terminal chloroplast targeting signal and the C-terminal 51 residues are deleted; Used unlabelled, 15N- or 13C/15N-labelled; also called VQ23; source: E. coli BL21(DE3), purified (Ni-NTA, gel filtration Superdex-75)
- stoichiometry N [1]: 1
- binding result [2]: binds
- binding result (WRKY33_C D357C mutant): binds
- binding result (WRKY33_C R366C mutant): binds
- binding result [3]: binds
- binding result (WRKY33_C K376C mutant): binds
- binding result [4]: binds

B2: Trx-SIB1 fusion protein (thioredoxin-fused SIB1) (domain or fragment, Arabidopsis thaliana, UniProt Q9LDH1 11-100, looked up)
chain: TTSLDKKKPSPVSRKSPKQKKKTTSTNKPIKVRYISNPMRVQTCASKFRELVQELTGQDAVDLQPEPIYSPSSDDHNLSPPAENLAPRVL
notes: SIB1 (VQ23), Arabidopsis; limits are not restated for the Trx fusion; The methods give 24 kDa for 'Trx'
- stoichiometry N [5]: 1

B3: W-box DNA (dsDNA)
DNA 1: AAAGTTGACCAA
DNA 2: TTGGTCAACTTT
- Kd (WRKY33_C): ~150 nM

B4: SIB1^mini (SIB1^46–69 peptide, minimal SIB1 construct) (peptide, UniProt Q9LDH1 46-69, looked up)
peptide: SNPMRVQTCASKFRELVQELTGQD
notes: SIB1 (VQ23), Arabidopsis, residues 46-69: the VQ motif and its preceding segment; source: synthetic peptide
- binding result (WRKY33_C V351A mutant): binds
- binding result (WRKY33_C I350A mutant): binds

B5: SIB1^mini-V51R mutant peptide (peptide, UniProt Q9LDH1 46-69, looked up)
peptide: SNPMRRQTCASKFRELVQELTGQD
notes: SIB1 (VQ23), Arabidopsis, residues 46-69 with V51R
- binding result [6]: binds
- binding result [7]: binds
